These results are taken from patent US20250092373A1, “CRISPR-MEDIATED DELETION OF FLI1 IN NK CELLS” (The Regents of the University of California, priority 2022, published 2025).

Experiment [1] deals with splenic NK cells. The conditions noted are these: 3 hours after cytokine stimulation ex vivo; published RNA-seq datasets (GSE140044); cited from earlier work.
The test system of another experiment is STAT5. Description: Fli1 protein by western blot in IL-15-stimulated splenic NK cells with STAT5 inhibitor or vehicle. The class given is cell-based, mouse. The note with it: 100 μM inhibitor vs vehicle control (DMSO). As to the method: (§1) For plate-bound antibody stimulation experiments, ˜5×10^5 isolated NK cells were stimulated with […] precoated antibody against NK1.1 (PK136) for 4 hours in complete media containing Brefeldin A (1:1000; BioLegend) and Monensin (2 uM; BioLegend). Cells were cultured in media alone as a negative control. In cytokine stimulation experiments, isolated NK cells were incubated with various concentrations of mouse IL-15 or IL-2, in the presence or absence of 100 μM CAS 285986-31-4 STAT5 inhibitor (Millipore Sigma).
(§2) Protein was extracted from enriched primary splenic NK cells using Pierce RIPA buffer (Thermo-Fisher) with Halt protease inhibitor cocktail (Thermo-Fisher) and protein concentration was quantified using the Pierce BCA Protein Assay kit (Thermo-Fisher). Samples were electrophoresed on NuPage Novex 4-12% Bis-Tris Protein Gels, transferred to PVDF membranes, and blocked for one hour at room temperature with 5% w/v nonfat milk in 1× TBS and 0.1% Tween-20. Immunoblots were performed using rabbit anti-Fli1 (Abcam ab133485), rabbit anti-β-actin (Cell Signaling CST4970), and rabbit anti-GAPDH (Millipore Sigma G9545). Proteins were detected using the SuperSignal West Pico PLUS ECL kit (Thermo-Fisher) and visualized using the Azure Biosystems c280 imager. Band density was quantified using ImageJ version 1.53.
Background: Immunoblotting shows a protein as a band on a membrane.

For experiment [2], the system named is splenic NK cells. Description: Fli1 protein by immunoblot of purified splenic NK cells cultured with IL-2 or IL-15. The class given is cell-based, mouse. The note with it: for Fli1 protein induction: 48 h culture with increasing doses of cytokine. As to the method:
as §1, §2

For the molecule “IL-18: cytokine used to stimulate NK cells ex vivo”, the Fli1 transcripts result in the experiment on splenic NK cells [1] was “decreased Fli1 expression”. For the molecule `O=C(N/N=C/c1coc2ccccc2c1=O)c1cccnc1` [STAT5 inhibitor], in the experiment on STAT5, the “reduction of Fli1 protein” value is on record as ~50%.

B1: IL-2: mouse IL-2 cytokine used to stimulate splenic NK cells (protein, UniProt P04351 21-169, looked up)
Interleukin-2: APTSSSTSSSTAEAQQQQQQQQQQQQHLEQLLMDLQELLSRMENYRNLKLPRMLTFKFYLPKQATELKDLQCLEDELGPLRHVLDLTQSKSFQLEDAENFISNIRVTVVKLKGSDNTFECQFDDESATVVDFLRRWIAFCQSIISTSPQ
Turning to B1, the Fli1 protein induction result in the experiment with splenic NK cells [2] was “induced by both IL-2 and IL-15 in a dose-dependent manner”. In addition, the Fli1 transcripts result in the experiment with splenic NK cells [1] is on record as “induced Fli1 transcripts”.

B2: IL-12: cytokine used to stimulate NK cells ex vivo (protein, UniProt P29459 23-219; P29460 23-328, looked up)
Interleukin-12 subunit alpha: RNLPVATPDPGMFPCLHHSQNLLRAVSNMLQKARQTLEFYPCTSEEIDHEDITKDKTSTVEACLPLELTKNESCLNSRETSFITNGSCLASRKTSFMMALCLSSIYEDLKMYQVEFKTMNAKLLMDPKRQIFLDQNMLAVIDELMQALNFNSETVPQKSSLEEPDFYKTKIKLCILLHAFRIRAVTIDRVMSYLNAS
Interleukin-12 subunit beta: IWELKKDVYVVELDWYPDAPGEMVVLTCDTPEEDGITWTLDQSSEVLGSGKTLTIQVKEFGDAGQYTCHKGGEVLSHSLLLLHKKEDGIWSTDILKDQKEPKNKTFLRCEAKNYSGRFTCWWLTTISTDLTFSVKSSRGSSDPQGVTCGAATLSAERVRGDNKEYEYSVECQEDSACPAAEESLPIEVMVDAVHKLKYENYTSSFFIRDIIKPDPPKNLQLKPLKNSRQVEVSWEYPDTWSTPHSYFSLTFCVQVQGKSKREKKDRVFTDKTSATVICRKNASISVRAQDRYYSSSWSEWASVPCS
For B2, the Fli1 transcripts result in the experiment on splenic NK cells [1] is listed as “decreased Fli1 expression”.

B3: IL-15: mouse IL-15 cytokine used to stimulate splenic NK cells (protein, UniProt P48346 49-162, looked up)
Interleukin-15: NWIDVRYDLEKIESLIQSIHIDTTLYTDSDFHPSCKVTAMNCFLLELQVILHEYSNMTLNETVRNVLYLANSTLSSNKNVAESGCKECEELEEKTFTEFLQSFIRIVQMFINTS
Take B3: the Fli1 protein induction entry with splenic NK cells [2] was “induced by both IL-2 and IL-15 in a dose-dependent manner”. Besides, the “Fli1 protein induced, IL-15 compared with IL-2” value in the experiment on splenic NK cells [2] (48 h culture, at each dose) is reported as “more Fli1 protein than IL-2 at each dose”. Moreover, the Fli1 transcripts result with splenic NK cells [1] is listed as “induced Fli1 transcripts”.
